We go through seven sequences from patent US6027884.

One series has as its system Alu I restriction endonuclease. Description: cleavage_in_vitro. Particulars: first strand cleavage rate constant; 13 uM (AT)2 competitor.
Sequence “ATATATATAGCTATATATAT (double strand) [(AT)4 AGCT(AT)4]” yielded an activity of 0.0093 min⁻¹.

As to “AAATATAGCTATATTT (double strand) [(AA)(AT)2 AGCT(AT)2 TT]”, the activity came out at 0.0077 min⁻¹.

As for “AAAAAAAGCTTTTTTT (double strand) [(AA)3 AGCT(TT)3]”, the activity turned out to be 0.0039 min⁻¹.

The sequence “AAAAAAAAAGCTTTTTTTTT (double strand) [(AA)4 AGCT(TT)4]” came in with an activity of 0.0031 min⁻¹.

Sequence “ATATATAGCTATATAT (double strand) [(AT)3 AGCT(AT)3]” gave an activity of 0.0115 min⁻¹.

Sequence “AAAAAGCTTTTT (double strand) [(AA)2 AGCT(TT)2]” yielded an activity of 0.0063 min⁻¹.

Staying with this series, now noted: first strand cleavage rate constant; 13 uM (AT)2 competitor, 95 nM labeled duplex.
“ATATAGCTATAT (double strand) [(AT)2 AGCT(AT)2]”: the activity came to 0.019 min⁻¹.
